Experimental data taken from publication PMC8684725 (Molecular Biology of the Cell, 2021).

B1: WNK1SA (WNK1/S382A), WNK1 (194-483) S382A, unphosphorylated kinase domain (domain or fragment)
chain: not shown
B2: unphosphorylated kinase domain of WNK3, WNK3 (118-409) (domain or fragment)
chain: not shown

Key:
crystal structure = molecular target: the molecule itself; test: crystal structure
static light scattering = molecular target: the molecule itself; test: static light scattering

| Protein | binding result (crystal structure) | stoichiometry N (static light scattering) |
| --- | --- | --- |
| B1 | binds | – |
| B2 | – | 2 |
